Consider two molecules from article PMC13169712, “Structural determinants of peanut-induced anaphylaxis” (The Journal of allergy and clinical immunology, 2025).

Settings in all cases: both partners purified
For experiment [1], the target named is T1, recombinant Ara h 2.01 (Arachis hypogaea, Ara h 2.01, UniProt Q6PSU2;PDB, strain).
T1 construct: also called rArah2.01; source: HEK cell-produced, recombinant
Kind of experiment: SPR; Carterra LSA; antibody as ligand, allergen or peptide as analyte; how the antibody was held for these pairs is not told.

Experiment [2] addresses T2, recombinant Ara h 2.02 (Arachis hypogaea, Ara h 2.02, UniProt Q6PSU2, strain).
T2 construct: also called rArah2.02; source: recombinant
Described as above.

Experiment [3] concerns the target T3, recombinant Ara h 6 (Arachis hypogaea, UniProt Q647G9).
T3 construct: Ara h 6, Arachis hypogaea; May be the same construct as Ara h 6c; also called rAra h 6; rArah6; source: recombinant
The experiment can be described thus: SPR; Carterra LSA; antibodies noncovalently bound to PAGHC30M (Protein A/G) sensor chips; analyte at 0.16, 0.8, 4, 20, 100 and 500 nM in HBS-TE, 0.05% BSA; 5 min association, 15 min dissociation. For orientation: Surface plasmon resonance follows binding to a sensor surface in real time, without labels.

Experiment [4] deals with T2, recombinant Ara h 2.02. The description is as above.
The target of experiment [5] is T4, rAra h 2 with the DPYSPS-containing loop deleted (Arachis hypogaea, Ara h 2.01 background, UniProt Q6PSU2;PDB, point mutant).
T4 construct: also called rAra h 2_loopdel; rArah2_loopdel
Described as above.

B1: 38B7 human IgE mAb (antibody, V domains shown)
VH: QVQLVESGGGVVQPGRSLRLSCVGSGFTFRRDAKYWVRQAPGKGLEWVAAISHDGGEEDYAESVKGRFTISRDNSRETVYLEMNSLRPEDTAVYYCATTRSGWYFDYWGQGALVTVSS
VL: EIVLTQSPATLSLSPGARATLSCRASQSVDTYLAWYQQRRGQSPRLLIYDASKRATGIPARFSGSGSGTDFTLTISSLEPEDFAVYYCQQRNNWRTWTFGQGTKVEIN
notes: variable region as in the heavy chain of m5; human IgE heavy chain constant region; as the light chain of m5; In the SPR some pairs used antibody captured on a Protein A/G chip; also called IgE mAb 38B7; 38B7 IgE
For B1, in experiment [1], the Kd is 30 nM, the koff worked out at 0.000459 s⁻¹ and the on-rate (kon) was determined as 15500 M⁻¹ s⁻¹. Besides, in experiment [2], the Kd was determined as 3.5 nM, the off-rate constant (koff) was determined as 0.000474 s⁻¹ and the kon was determined as 165000 M⁻¹ s⁻¹. Further, the binding result in experiment [3] is recorded as “no binding (tested: 500 nM (highest analyte concentration))”.

B2: 16A8 human IgE mAb (antibody, V domains shown)
VH: QVQLVQSGPDVRKPGATVKVSCQTSGYRFTDYEMNWVRQAPGQGLEWIGLINPHSGDTAYAQKFQGRVTMTSDTSDSTVYLELSGLTPDDTAVYYCARSQGTFEVYYFVSWGQGSLVTVSS
VL: SYVLTQPPSMSVAPGTTASIPCGANNIAKKRVHWYRQKPGQAPVVVVSDDEDRSSVIPDRFSGSKSGDTATLTISRVEAGDEGDYYCQVWDSKTDHVVFGGGTKVTVL
notes: variable region as in the heavy chain of m1; human IgE heavy chain constant region; as the light chain of m1; In the SPR some pairs used antibody captured on a Protein A/G chip; also called 16A8 antibody
In the case of B2, the Kd amounted to 0.065 nM in experiment [1], 0.036 nM in experiment [4], 0.017 nM in experiment [5] and 0.036 nM in experiment [3]. The koff in experiment [1] is 5.63e-05 s⁻¹; in experiment [4] it was 3.82e-05 s⁻¹; in experiment [5], 3.69e-05 s⁻¹; in experiment [3], 8.57e-05 s⁻¹. For the same molecule, the kon in experiment [1] worked out at 872000 M⁻¹ s⁻¹; in experiment [4], 1.35e+06 M⁻¹ s⁻¹; in experiment [5], 2.22e+06 M⁻¹ s⁻¹; in experiment [3] it was 2.39e+06 M⁻¹ s⁻¹.

Broadly, the Kd is the constant that tells how readily two partners part at equilibrium. The term koff denotes the rate constant with which the complex falls apart. One may read the kon as the rate constant with which the complex forms.
